Measured values published in the DeepSol protein solubility set.

Test: soluble on expression in E. coli; label from the status in PepcDB or PDB records

Sequence	soluble on expression in E. coli
MLFLFVDGLGLGGALEDLFPFLLALAPTPLDATLGVEGLPQSGTGQTALLTGENAARLLGHHQGPFPSPRLRPLLAQGLYAWAKGKGLRVLHANGYRPDYLRRATEGKRLLLSAFAQAARLAGIPLLPLGHPLALLPGFWEDPYGAGAKAAALARAFDLVVLEYWALDLAAHRHPESLPDRFRELTLFLQGFLAEGGVLLLASDHGNAEEPWHPRHTLNPVPLVYTEEAPPPPEDLTGVFPWLRTIITSKTNKSDRNT	soluble
MGSDKIHHHHHHLRDATSQIGQTVVGEAVRLVSFRPLGNLANHTLLMAAIVMMQSKHPDQFEKSNEILDTLMEREMHHPVVLTWAGIWHVMRVQKGLSGDRRKSTLMAENLANAALAQDPAFSLAHTLKGMIASYLTFDFDNAQYSYDKALQDNPNEALALLLKGATRAMQNRPDEGVVLTEAARKLTPLGPQRYYFDSLAAAVSLAARDYNRAIELADRSLEENDSYPSTLRTKAIALQMSGRSDEARHVVESLMKVTPDFSLSRYMQEHAAGFTPSGPDWASALREAGVPE	not soluble
MRKRLLGDEHPDVAFSLNNLATVLAATNHPEEALSHRIEASNINDQIIRNIFAFSSESDRLSFLDKIRNNFDLFLSLVCNHLANSNRAKLAALDFVLKRKALTASALAAQNQAFYNGRYPQLQEKFSQLRDLSNQIIHLTFAVPETDDLATYQDNIRQLQSRHNHLQKQLAAQVPEIQLSEQVFDCQAIAAALPHNSILVEFVRFDVFDFQAVSANGETQWHPARYLAFILTAGKPNAVQMIDLGVADTIDRLIQAFRLQASDYTLPTLAWGKAPKLRVKSYNPTPAIELSQALLEPIRGLVKDCRHLIIAPDGNLNLVPFQVLPIDATSSRLLMDEYTISYLGVGREILRSKFQPSTGSISAPLIIADPDFDLSGTGDWENNTRLDVRSLQLSNQFTETGLLRAPGTRFLGESVAKKLPDAKLYLGAEALETRLTNSNCPKIMLIATHGLFQSDSQAQPVTKRRNLLSMERQRTTKVENPMLRSGLALAGANTWLAGGTLPLAAGKGFVFAQDIANLDLWANELTVLSACDTARGDIKIGEGVFGLRRAFAVAGTKTLVMSLWSVPDKVTALLMERFFDNLQSGMSRSEALDSAQNYIRNITVKELRASALGLEVLKELLAVKELSANSRIDCQEDDTPLEHPFYWGAWICQGNTNPLVNLEHHHHHH	not soluble
MGSDKIHHHHHHMTFGLLHRWLTDMGMTISKNTLRNWLTKDKTYLDELVCVLKSIALEKDSIVNCDETWCKVRKYDHYKKCYIGVLVNKARKTAIFFYENGSCGRDVLTDFLGDAELKSIMSDGYNAYVFIGNELKLGRFKDTVHQVCMSHAKNKFVKASNQGGEPTAERFSEILKEFFMRDREYDDAGLTPKERFQERQSLETKELLIELRSLLDSEQSKDSEFRSRYYKEALNYLNRFRKEIFAYLDDGELPIDNNLAERTIRKLTTQRNNSLHYGSDAGAEMAATYHSVIGTVKLLGSSIWNFIGTFFKNIFNGCRDYVNMVPDKITLATSQC	not soluble
SLENVMRSLGFGFACKKGLKPDSPNQDDFAALCCSAFRLFGVFDGHGPSGHDVSGYVHRMLFALLLTDESLNRNPQLALRNAFVAPSKLRKSALLQVVCLPLFRPQPFTNVGGYDEAKAVRFVLFFSGGELKRLECDIPYRVFLKGRLYPGLAMSRALGDAIASHAGVSCEPDLSTVELDRSCLFVIIASDGVWEFISNQEAVNIVNEAMGSERKVRAKAAAERLALEAFKRWVEEEGNVVDDVFPVSPGGSHALPLLTTDPFIAKMKFLTNILLVLSCVLVLAGTVQGQKME	not soluble
MTTETQADRTQQAVGRIIGSIGVVTTQTTGRHQGILTSWVSQASFTPPGIMLAIPGEFDAYGLAGQNKAFVLNLLQEGRSVRRHFDHQPLPKDGDNPFSRLEHYSTQNGCLILAEALAYLECLVQSWSNIGDHVLVYATVQAGQVLQPNGITLEHHHHHH	soluble
MSLKLVAIAGSIGEQSYNRMLLQYIAKHFENLVDIELLNIDDVPVFNEDEDLSDNIKIQKIYQKIYGADGVILATPEHNHTVTAAIKNVIEWLSFKLHPFDGKPVWIVGASYFNQGSSRAQLHLKQILEAPGVNAIVMPGNEFLLRNAKEAFDAEGQLKDAGTVQFLEMVIQKFIKFVKVIDMLDAPDPKSYQDEDLESKGKVNTTIEGVDMHDEHWVEKAAQKVHAVDGSTYVKLDRGILTVDQLNYFLKTMPVELTYADDNNQFIYYNKNQPADKMLAPRNPGQAGDPLADVHPGRAVDRVKQVIHALRTGETDLVSMPVPGNGPDRHVMHYYKAMRDENGRYRGVNEWVTDIMPIIKYYLASTGEGHHHHHH	soluble
MLNIFTTISKINITSLAIGCFDGMHLGHLKLVKCLDENGALLVINKFKGQFLCSNRQKEEISGKKVIEVDFESIKSLDGRDFLSFLKKEFVNLKFIVVGYDFSFGKNRAYNAKDIESLSGIKTIIVDEFSIDGIGVHASLIKDFLSKANLQKAKEFLGRDYSIKGKMIKGQGLGSKELFATINLDCEGYFLPQNGVYVTLLKSQRKTYKSVSFLGVRSSDENFAIESHILEELGENFTQGEFFELEFISFLRENQKFQDLKKLKNQIAKDIEQARELLRKNDER	not soluble
QQGNPNLSSPQPILDTIYKLLSEQEQTLVQMIHEQSLLLNRLPPTLDENSLAPLKSLSQKQITLSGQMNTEMSALDATKKGMILEPTDLAKLFALKQDLQIQFKQLSLLHNEIQSILNPQHSAPKPNVALVLKSQPFPVVISKGKQLGENQLVVLVLTGARSNFHINGPVKATMICDSHPTNKNNPTTPLEMDSQPIYPATLTAHFPLKFLAGTRKCSVNLKFGVNIRDLDNVTTTVESDASNPFVVITNECQWEGSAGVLLKKDAFDGQLEITWAQFINTLQRHFLIATKQDPVRPKRPLSSYDLKYIQTHFFGNRSIIHQQDFDKFWVWFGKSMQTLRYQRHISTLWQEGIIYGYMGRQEVNDALQNQDPGTFIIRFSERNPGQFGIAYIGVEMPARIKHYLVQPNDTAAAKKTFPDFLSEHSQFVNLLQWTKDTNGAPRFLKLHKDTALGSFAPKRTAPVPVGGYEPLNS	soluble
SASEDAALDATGHKKGEPAFGVTIPKGTTYRDSDGKEVPHPCVDRKIGYQGHFDALYGTYNYSVKEPATDLPKLELMAVDGQQVVPQESLCFRLPPDAGEDGEELSRIRIPDDEEFSFLGKPGDIVWYAPQNIPFANGHRPIWAGIGAFDPHHEPKGKDSIPEHLDKNMYFELKDFSGPGDVNVFFKNNSRKEVERIFSSNDEELKTIEYEMGSHGHFNWTFSKPGIYELTWEAYVKNGAFKVKTEPVRQIWLVGSDEEVGLPEGTTTNLNKITKPLDKDATNEPPTDPSEKKKPPRPEKGHSETSSPSALDDSIERAWKLTGTPKTIINDGHMDLALTRPDKEFVTVINREGKKYSSGDVTLAVPDSGGDQGGPLVKTDSWKDRIEAQISGSLPDQAWVLPESQDHKLPWVGFSNEDLPSDALLPDSKMTVSLNKVELPHDGRMISWHNGISGIDLLTDTDDLSKNLEYGLHAHDHQSMLFTKEGAYGLEYSFDITTASGKQESYPLHISYLVGDATIARAKEILAGEKLGGSLKKKPQEKETKKPASVQNKSGKHNKDTVGSESARKRQQLAATSGSDTNGIYSFHDGDVQDEAVTTAAEWQELDT	not soluble
MPKMIMVNKKASESQVMELEKRNYNNPVVLCGFAGSTPTGVLAASYIVETLGMHQVAHLISQHIPPVAVFVGGKLRHPFRIYANNSNTVLVAMCEVPISSAHIYEISNTLMNWIDQVGASEIVIMEGSPANGIPEERPVFAVAEKPKLDKFKKAGIQPADSAIIAGMGGGILNECLVRKITGLSFITPTSVDIPDPGAVLSIIEAINKAYNLKIKTDLLEEQVKALDEQIKKIEEQYKELQEKQKEPQSMYG	soluble
MDDLIELEISKTQCIRIYLPCKKEDLDFFDCVTIEYLKEQTEYILYYKDLSGAAIISLKELLEKALNFKLQIENEYKDKGIGYYHSIYTNNIYANKLQTAGSQDLIDPTKDFLVWSTLGPTSIGTFIYNDQDKIYIEISPLYEWFNHIFDDILEEYNEVKDEDASFDDFLNNYKPIDIVAIDRKVAEKWLEFCCEMIEILKANDKKQLK	not soluble
GPGSMLRLSLRRWCAAAASGSSTSTAHGSPPATTLPDFYGKSFSVSPRAWAQITRKNSEEGFTNDARYLRLAIDSGGCHGYVYKFSFEKNDEFSCEGDVAIAEVDAVSPSDEAFTGAQPSPRVVVDTLSASKLANATLDYHSELKGSAFVVVGNELVDESCACAMSFSMRKTTRQSVASSSSARGASSGDGGGHGGSGAAAPPAGSSLAANARPISRRSTTRATS	soluble
RTGAELLALTTSTGKSIAQLMWDNERAWHTEAETRTGLLKIWDVMQSCVARGCGIGNPDADGTLPGPFQVKRRAPQLYRALTGNPERALQDPLSMVDWINLYAIAVNEENAAGGRVVTAPTNGAAGIIPAVLHYYTRFTPGANEQGVIDFLMTAAAIGILYKLNASISGAEVGCQGEVGVACSMAAGALAAVLGGTPQQVENAAEIGMEHNLGLTCDPVGGMVQIPCIERNAMASVKAVNAARMALRGDGSHYVSLDSVIKTMRETGADMKTKYKETSRGGLAVN	not soluble
MAKSRTIYVCAECGGTSLKWQGKCPHCSAWNTLEETVESAASSAGGHRYAPLAAASPVRSLSEIEARETPRQPTGLDEFDRVLGGGLVAGAVVLIGGDPGIGKSTLLLQALASLSATTKVLYVTGEESAEQVALRARRLGLQTGNVDLLAEIRLEAIQAAVSEQKPTVAVIDSIQTLYSGELTAAPGSVSQVRECAAQLTRLAKQTGIAIVMIGHVTKDGALAGPRVLEHIVDTVLYFEGDTHSSFRLVRAFKNRFGAVNELGVFAMTDRGLRGVANPSALFLSQHQQQVAGSCVLATQEGTRPLLVEVQALVDTSHAPNPRRLTVGLEGNRLAMLLAVMHRHAGVSTYDQDVFVNAVGGVRITEPAADLPVLLAIMSSLRDKPLPAGLVAFGEIGLAGEIRPAPRGQERLREAAKLGFSVALIPKANAPRQPIEGLEIWAVDRLDAALDKLRLEHHHHHH	not soluble
MELSSPGVGSGLDVKNLVDAIVTAEITPSQVRHDKQLNSVNTELSALGQLKSYLTNLQTSLAKLSSLSQFYTMKSTISDPNYFSATLGTGATKNTYQIEIQKLAQQHS	not soluble
MGSDKIHHHHHHMWDRGLHSYRMVHATLKCGCHYLGRVPKNVKFPVDKVLDDGSYLSWIAPDRKSKHKGGTRIQVRVIEYTIDSENGQQTYRLIPSLMDIALFPALLLATEYHQRWEIENTIDELKTHLNGRKTPIRSLKPREVVQEIYGWLLSHYAVRTLMFQAATAASISPLRLGFTGTLKVIRRAIADFQDANSEQLPFFLQANSGDFGAKNPYRRYIAALTQQRDFNLLILQNRLDHRFTNGCIPVFIIPKQINNREGLLQKTEVRK	not soluble
MGSDKIHHHHHHMTNIILICVDQMRADTIRILGNPSIITPNLDALSLNSVVFSNHFSAGSPCSPARTSLLTGQYPATHGSITKNHRLKSTTNLALEIKKIGLSSTLFGFTDTVIPPYIQEKEGIMPGFDVQCYMNLHNIGLSGWAKELQKKGYHVLPNIMDIYRAEKAPYNYHDSDTAFLTDQVINYVASQGQEFGFIHLSYFRPHPPFIAPAPYSEYYPEVNCQKPEVDLETFLSMHPFHECLFHQLYKNTFNNLSYKQIESILTERFSRDKRAYYGLITELDYHLGRLITFLKDKGVYDETLLIFTSDHGELLGDKWLYEKGGYFDQSFHVPLLIKPPKALRSKQEGKIVDSFTSSIDLMPTILDIINAPIPESVEGLSLAELLSDGKNDSTRKDIIYEHYTTLPTKQLNRTLTIKDESFKYVYCSQFEHLLFDLKSDPDELKNLATESKHLNTVAYYQDRLRAEKLL	not soluble
